Data on one molecule can be found in patent publication US20230030529A1.

The test concerns the target C4-aa^1355 monoclonal antibody. The test is described as follows: competitive C4-aa^1355 ECLIA, peptide in solution against the biotinylated coating peptide.

C4-aa^1355 monoclonal antibody, sequence (VH, as listed by the source, chain 1 of 2): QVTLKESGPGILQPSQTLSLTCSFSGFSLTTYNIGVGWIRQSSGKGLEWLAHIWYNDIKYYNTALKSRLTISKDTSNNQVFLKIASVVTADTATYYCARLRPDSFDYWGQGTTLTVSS
C4-aa^1355 monoclonal antibody, sequence (VL, as listed by the source, chain 2 of 2): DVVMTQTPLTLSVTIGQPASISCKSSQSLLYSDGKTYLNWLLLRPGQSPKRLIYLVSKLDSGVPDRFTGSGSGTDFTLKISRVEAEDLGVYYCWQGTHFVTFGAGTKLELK

With MGNSGPTGAV [Deselection peptide 2 …], the signal left at the highest peptide concentration (% B/B0) was 65%.
